Test results published in paper PMC4775916 (Antimicrobial Agents and Chemotherapy, 2016).
“And” between values parts separate entries of the source, which are not always exact repeats. Equal values may be shown once. Read-outs that look alike come from different tables or passages of the source.

Columns and labels:
Type in all cases: biochemical
VIM-38 [1] = molecular target: T1, VIM-38 (Pseudomonas aeruginosa, UniProt A0A0F7KYQ8, A128K/A265V/E202A/H201L/K257T/S205R); assay: Steady-state kinetics of β-lactam substrate hydrolysis; conditions: 50 mM HEPES pH 7.2, apparent for ampicillin and ceftazidime; for Km: read-out: Mean Km ± SD VIM-38
T1 construct: The N- and C- terminal residues of the mature enzymes are labelled 26; His6 with HRV3C cleavage site (pET-28a) (N, cleaved yes); made in house; host or cells: E. coli BL21(DE3)
Experimental: (§1) The hydrolysis of a representative panel of β-lactam substrates was monitored at their respective absorbance wavelengths. The wavelengths and extinction coefficients used were previously described ([34]). The assays were carried out using 50 mM HEPES buffer (pH 7.2) supplemented with 1 μg/ml bovine serum albumin (BSA), 1 μM ZnSO4, and 0.01% Triton X-100. In the case of VIM-1, C-terminally His6-tagged VIM-1 was used for kinetic analyses. Note that no differences were observed between the activities of untagged VIM-1 and C-terminally His6-tagged VIM-1 for the selected antibiotics (data not shown). The initial rates were obtained from the changes in absorbance at various substrate concentrations. Steady-state kinetic parameters (Km and kcat) were determined by fitting the initial velocity data to the Michaelis-Menten equation using GraphPad Prism 5.01 software (see Table S4 in the supplemental material).

VIM-38 [2] = assay: as above; conditions: VIM-38 versus VIM-1
Experimental: as §1

VIM-5 [3] = molecular target: T2, VIM-5 (Pseudomonas aeruginosa, UniProt A0A0F7KYQ8, A128K/E202A/H201L/K257T/S205R); assay: as above; conditions: 50 mM HEPES pH 7.2, apparent for ampicillin and ceftazidime; for Km: read-out: Mean Km ± SD VIM-5
T2 construct: His6 with HRV3C cleavage site (pET-28a) (N, cleaved yes); made in house; host or cells: E. coli BL21(DE3)
Experimental: as §1

VIM-5 [4] = assay: as above; conditions: VIM-5 versus VIM-1
Experimental: as §1

VIM-1 [5] = molecular target: T3, VIM-1 (Pseudomonas aeruginosa, UniProt A0A0F7KYQ8); assay: Nitrocefin hydrolysis kinetics before thermal denaturation and after refolding
T3 construct: The N- and C- terminal residues of the mature enzymes are labelled 26; made in house
Experimental: (§2) Circular dichroism (CD) analyses were carried out using a Chirascan CD spectrophotometer (Applied Photophysics) equipped with a Peltier temperature-controlled cell holder. CD measurements were collected in the range of 185 to 260 nm; spectra were baseline corrected and smoothed using a Savitzky-Golay filter. Data were normalized at 207 nm to account for differences in protein concentrations ([38]), and the estimation of secondary structure content was performed with Dichro Web ([39]) using the CONTIN Analysis Programme (reference set 6) ([40]). Melting temperatures (Tm) of the recombinant enzymes were determined by monitoring temperature-induced changes in the CD signal at 222 nm. The temperature was increased by 1°C per min, and the CD signal was recorded at temperatures ranging from 25°C to 92°C. The samples were then cooled from 92°C to 25°C at the same rate, and a CD spectrum of the refolded proteins was determined. The activity of the enzymes was recorded before thermal denaturation and after refolding by monitoring nitrocefin hydrolysis. The thermal denaturation data were fitted to a Boltzmann sigmoidal curve by using GraphPad Prism 5.0 software. CD spectra and thermal denaturation curves are shown in Fig. 2 and in Tables S2 and S3 in the supplemental material.

VIM-2 [6] = molecular target: T4, VIM-2 (Escherichia coli, UniProt Q5U7L7); assay: as above
T4 construct: His6 (N, cleaved yes); made in house
Experimental: as §2

VIM-38 [7] = molecular target: T1, VIM-38; assay: as above
Experimental: as §2

VIM-4 [8] = molecular target: T5, VIM-4 (Pseudomonas aeruginosa, UniProt A0A0F7KYQ8, S205R); assay: as above
T5 construct: His6 (N, cleaved yes); made in house
Experimental: as §2

VIM-5 [9] = molecular target: T2, VIM-5; assay: as above
Experimental: as §2

VIM-1 [10] = molecular target: T3, VIM-1; assay: Inhibition of enzyme-mediated nitrocefin hydrolysis; conditions: read-out: IC50 VIM-1 (H224, S228); for IC50 VIM-4 (H224, R228): 10 min preincubation
Experimental: (§3) Inhibitors were prepared as reported previously ([36], [41]). Enzyme-mediated hydrolysis of nitrocefin was monitored by determining the changes in absorbance at 495 nm, as previously described ([36], [37]). Residual activities were first determined at a 100 μM inhibitor concentration. […] The residual activities were obtained at increasing inhibitor concentrations (0.2 to 2,000 μM); the data were analyzed using GraphPad Prism 5.01 software.

VIM-2 [11] = molecular target: T4, VIM-2; assay: as above; conditions: read-out: IC50 VIM-2 (Y224, R228)
Experimental: as §3

VIM-38 [12] = molecular target: T1, VIM-38; assay: as above
Experimental: as §3

VIM-4 [13] = molecular target: T5, VIM-4; assay: as above; conditions: read-out: IC50 VIM-4 (H224, R228)
Experimental: as §3

VIM-5 [14] = molecular target: T2, VIM-5; assay: as above
Experimental: as §3

[15] = tested on: CC(=O)OCC1=C(C(=O)O)N2C(=O)[C@@H](NC(=O)Cc3cccs3)[C@H]2SC1; assay: Steady-state kinetics of β-lactam substrate hydrolysis; conditions: other: C-terminally His6-tagged VIM-1, 50 mM HEPES pH 7.2, apparent for ampicillin and ceftazidime
Experimental: as §1

[16] = tested on: CC(C)(O/N=C(\C(=O)N[C@@H]1C(=O)N2C(C(=O)[O-])=C(C[n+]3ccccc3)CS[C@H]12)c1csc(N)n1)C(=O)O; assay: as above; conditions: other: C-terminally His6-tagged VIM-1, 50 mM HEPES pH 7.2, apparent for ampicillin and ceftazidime
Experimental: as §1

[17] = tested on: CO[C@@]1(NC(=O)Cc2cccs2)C(=O)N2C(C(=O)O)=C(COC(N)=O)CS[C@@H]21; assay: as above; conditions: other: C-terminally His6-tagged VIM-1, 50 mM HEPES pH 7.2, apparent for ampicillin and ceftazidime
Experimental: as §1

[18] = tested on: C[C@@H](O)[C@H]1C(=O)N2C(C(=O)O)=C(SCCN=CN)C[C@H]12; assay: as above; conditions: other: C-terminally His6-tagged VIM-1, 50 mM HEPES pH 7.2, apparent for ampicillin and ceftazidime
Experimental: as §1

[19] = tested on: C[C@@H](O)[C@H]1C(=O)N2C(C(=O)O)=C(S[C@@H]3CN[C@H](C(=O)N(C)C)C3)[C@H](C)[C@H]12; assay: as above; conditions: other: C-terminally His6-tagged VIM-1, 50 mM HEPES pH 7.2, apparent for ampicillin and ceftazidime
Experimental: as §1

[20] = tested on: O=C(Cc1cccs1)N[C@@H]1C(=O)N2C(C(=O)O)=C(/C=C/c3ccc([N+](=O)[O-])cc3[N+](=O)[O-])CS[C@H]12; assay: as above; conditions: other: C-terminally His6-tagged VIM-1, 50 mM HEPES pH 7.2, apparent for ampicillin and ceftazidime
Experimental: as §1

[21] = tested on: O=C(Cc1cccs1)N[C@@H]1C(=O)N2C(C(=O)O)=C(/C=C/c3ccc([N+](=O)[O-])cc3[N+](=O)[O-])CS[C@H]12; assay: Nitrocefin hydrolysis kinetics before thermal denaturation and after refolding; conditions: other: nitrocefin hydrolysis
Experimental: as §2

[22] = tested on: CC(=O)OCC1=C(C(=O)O)N2C(=O)[C@@H](NC(=O)Cc3cccs3)[C@H]2SC1; assay: purified protein, by the assay type; conditions: other: 50 mM HEPES pH 7.2, apparent for ampicillin and ceftazidime
Experimental: as §1

[23] = tested on: CC(C)(O/N=C(\C(=O)N[C@@H]1C(=O)N2C(C(=O)[O-])=C(C[n+]3ccccc3)CS[C@H]12)c1csc(N)n1)C(=O)O; assay: purified protein, by the assay type; conditions: other: 50 mM HEPES pH 7.2, apparent for ampicillin and ceftazidime
Experimental: as §1

[24] = tested on: CO[C@@]1(NC(=O)Cc2cccs2)C(=O)N2C(C(=O)O)=C(COC(N)=O)CS[C@@H]21; assay: purified protein, by the assay type; conditions: other: 50 mM HEPES pH 7.2, apparent for ampicillin and ceftazidime
Experimental: as §1

[25] = tested on: C[C@@H](O)[C@H]1C(=O)N2C(C(=O)O)=C(SCCN=CN)C[C@H]12; assay: purified protein, by the assay type; conditions: other: 50 mM HEPES pH 7.2, apparent for ampicillin and ceftazidime
Experimental: as §1

[26] = tested on: C[C@@H](O)[C@H]1C(=O)N2C(C(=O)O)=C(S[C@@H]3CN[C@H](C(=O)N(C)C)C3)[C@H](C)[C@H]12; assay: purified protein, by the assay type; conditions: other: 50 mM HEPES pH 7.2, apparent for ampicillin and ceftazidime
Experimental: as §1

[27] = tested on: O=C(Cc1cccs1)N[C@@H]1C(=O)N2C(C(=O)O)=C(/C=C/c3ccc([N+](=O)[O-])cc3[N+](=O)[O-])CS[C@H]12; assay: purified protein, by the assay type; conditions: other: 50 mM HEPES pH 7.2, apparent for ampicillin and ceftazidime
Experimental: as §1

## CO[C@@]1(NC(=O)Cc2cccs2)C(=O)N2C(C(=O)O)=C(COC(N)=O)CS[C@@H]21 [Cefoxitin]
VIM-38 [1]
  kcat VIM-38: 340 s⁻¹
  Km: 230 ± 60 µM
VIM-38 [2]
  fold increase in kcat/Km of VIM-38 over VIM-1: > 7 fold
  fold-higher kcat of VIM-38 than VIM-1: > 10 fold
VIM-5 [3]
  kcat VIM-5: 460 s⁻¹
  Km: 320 ± 60 µM
VIM-5 [4]
  fold increase in kcat/Km of VIM-5 over VIM-1: > 7 fold
  fold-higher kcat of VIM-5 than VIM-1: > 10 fold

## O=C(Cc1cccs1)N[C@@H]1C(=O)N2C(C(=O)O)=C(/C=C/c3ccc([N+](=O)[O-])cc3[N+](=O)[O-])CS[C@H]12 [Nitrocefin]
VIM-38 [1]
  kcat VIM-38: 720 s⁻¹
  Km: 70 ± 10 µM
VIM-5 [3]
  kcat VIM-5: 420 s⁻¹
  Km: 50 ± 5 µM
VIM-1 [5]; after refolding
  kcat VIM-1 after refolding: 12 s⁻¹
VIM-1 [5]; pre-heating
  kcat VIM-1 pre-heating: 25 s⁻¹
VIM-2 [6]; after refolding
  kcat VIM-2 after refolding: 290 s⁻¹
VIM-2 [6]; pre-heating
  Km: 13 ± 1 µM
  kcat VIM-2 pre-heating: 290 s⁻¹
VIM-38 [7]; pre-heating
  kcat VIM-38 pre-heating: 690 s⁻¹
VIM-38 [7]; read-out: Km VIM-38 after refolding, after refolding
  Km: 40 ± 4 µM
VIM-38 [7]; read-out: Km VIM-38 pre-heating, pre-heating
  Km: 55 ± 6 µM
VIM-4 [8]; after refolding
  kcat VIM-4 after refolding: 180 s⁻¹
VIM-4 [8]; after refolding, read-out: Km VIM-4 after refolding
  Km: 30 ± 2 µM
VIM-4 [8]; pre-heating
  kcat VIM-4 pre-heating: 340 s⁻¹
VIM-4 [8]; pre-heating, read-out: Km VIM-4 pre-heating
  Km: 45 ± 1 µM
VIM-5 [9]; after refolding
  kcat VIM-5 after refolding: 100 s⁻¹
VIM-5 [9]; after refolding, read-out: Km VIM-5 after refolding
  Km: 11 ± 1 µM
VIM-5 [9]; pre-heating
  kcat VIM-5 pre-heating: 210 s⁻¹
VIM-5 [9]; pre-heating, read-out: Km VIM-5 pre-heating
  Km: 45 ± 3 µM

## O=C(N[C@H](Cc1c[nH]c2ccccc12)C(=O)O)c1ncccc1O [compound 3]
VIM-1 [10]
  IC50: 50 µM
VIM-2 [11]
  IC50: 100 µM
VIM-38 [12]
  IC50: 50 µM
VIM-4 [13]
  IC50: 125 µM
VIM-5 [14]
  IC50: 50 µM

## VIM-1 (Pseudomonas aeruginosa PAO1)
[15]
  Km: 140 ± 10 µM
  kcat: 450 s⁻¹
  kcat/Km: 3.2e+06 M⁻¹ s⁻¹
[16]
  Km: 180 ± 60 µM
  kcat: 3 s⁻¹
  kcat/Km: 20000 M⁻¹ s⁻¹
[17]
  Km: 170 ± 50 µM
  kcat: 30 s⁻¹
  kcat/Km: 200000 M⁻¹ s⁻¹
[18]
  Km: 60 ± 10 µM
  kcat: 30 s⁻¹
  kcat/Km: 500000 M⁻¹ s⁻¹
[19]
  Km: 130 ± 20 µM
  kcat: 50 s⁻¹
  kcat/Km: 400000 M⁻¹ s⁻¹
[20]
  Km: 15 ± 1 µM
  kcat: 130 s⁻¹
  kcat/Km: 8.7e+06 M⁻¹ s⁻¹
[21]; after refolding
  Km: 26 ± 3 µM
[21]; pre-heating
  Km: 20 ± 2 µM
  kcat: 7 s⁻¹
  kcat/Km: 300000 M⁻¹ s⁻¹

## VIM-2 (Escherichia coli)
[22]
  Km: 50 ± 6 µM
  kcat: 210 s⁻¹
  kcat/Km: 4.2e+06 M⁻¹ s⁻¹
[23]
  Km: 120 ± 20 µM
  kcat: 2 s⁻¹
  kcat/Km: 20000 M⁻¹ s⁻¹
[24]
  Km: 40 ± 10 µM
  kcat: 50 s⁻¹
  kcat/Km: 1.3e+06 M⁻¹ s⁻¹
[25]
  Km: 33 ± 4 µM and 30 ± 4 µM
  kcat: 95 s⁻¹ and 100 s⁻¹
  kcat/Km: 3.3e+06 M⁻¹ s⁻¹
[26]
  Km: 20 ± 4 µM
  kcat: 7 s⁻¹
  kcat/Km: 300000 M⁻¹ s⁻¹
[27]
  Km: 50 ± 5 µM
  kcat: 510 s⁻¹
  kcat/Km: 1.02e+07 M⁻¹ s⁻¹
[21]; after refolding
  Km: 15 ± 1 µM
  kcat: 130 s⁻¹
  kcat/Km: 8.7e+06 M⁻¹ s⁻¹
